Values belong to the sequence of their own block, whether it stands above or below them.
Tests used:
HLA-B*58:01 = assay: IEDB peptide-MHC binding, purified MHC/direct/fluorescence; filed as Kd, often an IC50 or EC50 that approximates it; ≥ and ≤ were set here for values at or beyond the usual limits of such assays
HLA-A*11:01 = assay: as above
HLA-A*30:02 = assay: IEDB peptide-MHC binding, purified MHC/competitive/radioactivity; filed as Kd, often an IC50 or EC50 that approximates it; ≥ and ≤ were set here for values at or beyond the usual limits of such assays
HLA-A*01:01 = assay: as above
HLA-A*29:02 = assay: as above
HLA-A*26:01 = assay: as above
HLA-A*24:02 = assay: as above
HLA-A*23:01 = assay: as above
HLA-B*08:01 = assay: as above
HLA-A*69:01 = assay: IEDB peptide-MHC binding, purified MHC/direct/fluorescence; filed as Kd, often an IC50 or EC50 that approximates it; ≥ and ≤ were set here for values at or beyond the usual limits of such assays; conditions: source organism: Mycobacterium tuberculosis
HLA-A*32:01 = assay: IEDB peptide-MHC binding, purified MHC/competitive/radioactivity; filed as Kd, often an IC50 or EC50 that approximates it; ≥ and ≤ were set here for values at or beyond the usual limits of such assays
HLA-A*02:01 = assay: IEDB peptide-MHC binding, purified MHC/competitive/fluorescence; filed as Kd, often an IC50 or EC50 that approximates it; ≥ and ≤ were set here for values at or beyond the usual limits of such assays
HLA-B*15:01 = assay: IEDB peptide-MHC binding, purified MHC/direct/fluorescence; filed as Kd, often an IC50 or EC50 that approximates it; ≥ and ≤ were set here for values at or beyond the usual limits of such assays; conditions: source organism: Haemophilus influenzae
HLA-A*31:01 = assay: as above; conditions: source organism: Haemophilus influenzae
HLA-A*03:01 = assay: as above; conditions: source organism: Haemophilus influenzae
[1] = source organism: SARS coronavirus Tor2
[2] = source organism: Dengue virus 1 Brazil/97-11/1997
[3] = source organism: Dengue virus 3 Martinique/1243/1999
[4] = source organism: Vaccinia virus WR
[5] = source organism: Mammarenavirus machupoense
[6] = source organism: Vaccinia virus Copenhagen
[7] = source organism: Haemophilus influenzae
[8] = source organism: Dengue virus 2 Jamaica/1409/1983
[9] = source organism: Mammarenavirus lassaense
[10] = source organism: Lassa virus Josiah

Sequence: KTTFKPNTW
- Kd (HLA-B*58:01; source organism: SARS-CoV1): 157 nM
- Kd (HLA-A*11:01; source organism: SARS-CoV1): ≥ 32600 nM

Sequence: LAAEWVLAY
- Kd (HLA-A*30:02; [1]): 16.3 nM
- Kd (HLA-A*01:01; [1]): 35.5 nM
- Kd (HLA-A*29:02; [1]): 0.47 nM
- Kd (HLA-A*26:01; [1]): 75.2 nM
- Kd (HLA-A*24:02; [1]): ≥ 41100 nM
- Kd (HLA-A*23:01; [1]): ≥ 40300 nM

Sequence: LAGAGLAFSL
- Kd (HLA-B*08:01; [2]): 2620 nM

Sequence: LAIPPTAGVL
- Kd (HLA-B*08:01; [3]): 11900 nM

Sequence: LLEIKDKEQY
- Kd (HLA-A*30:02; [1]): 1270 nM
- Kd (HLA-A*01:01; [1]): 936 nM
- Kd (HLA-A*29:02; [1]): 3530 nM
- Kd (HLA-A*26:01; [1]): ≥ 82800 nM
- Kd (HLA-A*24:02; [1]): 10900 nM
- Kd (HLA-A*23:01; [1]): ≥ 70000 nM

Sequence: LLHEVGITV
- Kd (HLA-A*69:01): 1920 nM

Sequence: LMKERISSE
- Kd (HLA-B*08:01; [4]): 81.9 nM

Sequence: LTQKVVIFIL
- Kd (HLA-B*08:01; [3]): 3100 nM

Sequence: MFGTRKNSF
- Kd (HLA-B*08:01; [4]): 2.04 nM

Sequence: MTCGQPLSL
- Kd (HLA-A*32:01; [4]): 5.56 nM

Sequence: MTSERTLAV
- Kd (HLA-A*02:01; source organism: Yersinia pestis Nepal516): 57.7 nM

Sequence: NLIIHTAAL
- Kd (HLA-B*08:01; [4]): 1.55 nM

Sequence: RAEVSLHEV
- Kd (HLA-A*30:02; [5]): ≥ 41200 nM
- Kd (HLA-A*01:01; [5]): ≥ 66200 nM
- Kd (HLA-A*29:02; [5]): ≥ 78900 nM
- Kd (HLA-A*26:01; [5]): ≥ 77900 nM
- Kd (HLA-A*24:02; [5]): ≥ 77500 nM
- Kd (HLA-A*23:01; [5]): ≥ 77700 nM

Sequence: RFLYIIKLVF
- Kd (HLA-A*30:02; [1]): 1190 nM
- Kd (HLA-A*01:01; [1]): 1060 nM
- Kd (HLA-A*29:02; [1]): 1050 nM
- Kd (HLA-A*26:01; [1]): 16600 nM
- Kd (HLA-A*24:02; [1]): 13.3 nM
- Kd (HLA-A*23:01; [1]): 0.0321 nM

Sequence: RIIMLNFSI
- Kd (HLA-A*32:01; [6]): ≥ 77800 nM

Sequence: RKKARNTPF
- Kd (HLA-B*08:01; source organism: Dengue virus 2 Peru/IQT2913/1996): 82.7 nM

- Kd (HLA-B*58:01; [7]): 190 nM
- Kd (HLA-A*11:01; [7]): 5270 nM
- Kd (HLA-B*15:01): 296 nM
- Kd (HLA-A*31:01): 905 nM
- Kd (HLA-A*03:01): 1060 nM
Sequence: RLFFIDWEY

Sequence: RLPNLFHIL
- Kd (HLA-B*08:01; [4]): 68.5 nM

Sequence: RPKIKTNDI
- Kd (HLA-B*08:01; [4]): 2.11 nM

Sequence: RREEEEAGVL
- Kd (HLA-B*08:01; [8]): 2160 nM

Sequence: RTISESNTI
- Kd (HLA-A*32:01; [4]): 960 nM

Sequence: RVMVSPLAV
- Kd (HLA-A*02:01; source organism: Influenza A virus H3N2): 0.9 nM

Sequence: SIKSKSRRL
- Kd (HLA-B*08:01; [4]): 29.8 nM

Sequence: SIYRMSYQF
- Kd (HLA-A*32:01; [4]): 0.798 nM

Sequence: SLNITTLRAV
- Kd (HLA-A*30:02; [9]): 1700 nM
- Kd (HLA-A*01:01; [9]): ≥ 70400 nM
- Kd (HLA-A*29:02; [9]): ≥ 71400 nM
- Kd (HLA-A*26:01; [9]): ≥ 69700 nM
- Kd (HLA-A*24:02; [9]): ≥ 70300 nM
- Kd (HLA-A*23:01; [9]): ≥ 70000 nM

Sequence: SMTKKFKTI
- Kd (HLA-B*08:01; [4]): 151 nM

Sequence: SNRAIFVPI
- Kd (HLA-B*08:01; [4]): 127 nM

Sequence: SQMERFNCS
- Kd (HLA-B*08:01; [6]): 38.8 nM

Sequence: TKQTGSASSM
- Kd (HLA-B*08:01; [8]): 1440 nM

Sequence: TPMMRHTIE
- Kd (HLA-B*08:01; [2]): 7.23 nM

Sequence: TSSGDATTAY
- Kd (HLA-A*30:02; [1]): 606 nM
- Kd (HLA-A*01:01; [1]): 63.8 nM
- Kd (HLA-A*29:02; [1]): 98.8 nM
- Kd (HLA-A*26:01; [1]): 646 nM
- Kd (HLA-A*24:02; [1]): ≥ 70300 nM
- Kd (HLA-A*23:01; [1]): ≥ 70000 nM

Sequence: TYHPNCINCL
- Kd (HLA-A*30:02; [1]): ≥ 37200 nM
- Kd (HLA-A*01:01; [1]): ≥ 70400 nM
- Kd (HLA-A*29:02; [1]): 5580 nM
- Kd (HLA-A*26:01; [1]): ≥ 69700 nM
- Kd (HLA-A*24:02; [1]): 663 nM
- Kd (HLA-A*23:01; [1]): 1150 nM

Sequence: VDINLIPLI
- Kd (HLA-A*30:02; [9]): ≥ 76900 nM
- Kd (HLA-A*01:01; [9]): 19500 nM
- Kd (HLA-A*29:02; [9]): ≥ 78900 nM
- Kd (HLA-A*26:01; [9]): ≥ 77900 nM
- Kd (HLA-A*24:02; [9]): 2950 nM
- Kd (HLA-A*23:01; [9]): 1610 nM

Sequence: VISNLVLSY
- Kd (HLA-A*32:01; [4]): 808 nM

Sequence: VTDTNKFAHY
- Kd (HLA-A*30:02; source organism: Variola virus): 1290 nM
- Kd (HLA-A*01:01; source organism: Variola virus): 13.6 nM
- Kd (HLA-A*29:02; source organism: Variola virus): ≥ 25500 nM
- Kd (HLA-A*26:01; source organism: Variola virus): ≥ 69700 nM
- Kd (HLA-A*24:02; source organism: Variola virus): ≥ 70300 nM
- Kd (HLA-A*23:01; source organism: Variola virus): ≥ 50200 nM

Sequence: VYALCTLLHL
- Kd (HLA-A*30:02; [1]): ≥ 100000 nM
- Kd (HLA-A*01:01; [1]): 19900 nM
- Kd (HLA-A*29:02; [1]): 5570 nM
- Kd (HLA-A*26:01; [1]): 14000 nM
- Kd (HLA-A*24:02; [1]): 76.7 nM
- Kd (HLA-A*23:01; [1]): 39.8 nM

Sequence: YCNYSKYWY
- Kd (HLA-A*30:02; [10]): 668 nM
- Kd (HLA-A*01:01; [10]): 15800 nM
- Kd (HLA-A*29:02; [10]): 713 nM
- Kd (HLA-A*26:01; [10]): ≥ 77900 nM
- Kd (HLA-A*24:02; [10]): ≥ 44400 nM
- Kd (HLA-A*23:01; [10]): 13600 nM

Sequence: YIESKRGVY
- Kd (HLA-A*30:02; [1]): 47 nM
- Kd (HLA-A*01:01; [1]): 145 nM
- Kd (HLA-A*29:02; [1]): 20.3 nM
- Kd (HLA-A*26:01; [1]): 735 nM
- Kd (HLA-A*24:02; [1]): ≥ 77600 nM
- Kd (HLA-A*23:01; [1]): ≥ 77800 nM

Sequence: YRIAKFLFM
- Kd (HLA-B*08:01; [4]): 16.8 nM

Sequence: YYSLLMPIL
- Kd (HLA-A*30:02; [1]): ≥ 81100 nM
- Kd (HLA-A*01:01; [1]): ≥ 78100 nM
- Kd (HLA-A*29:02; [1]): ≥ 75000 nM
- Kd (HLA-A*26:01; [1]): 13700 nM
- Kd (HLA-A*24:02; [1]): ≥ 77600 nM
- Kd (HLA-A*23:01; [1]): ≥ 43900 nM
